Values quoted from earlier work, collected in patent publication US20250341526A1, “NOVEL DYES” (Quantum-Si Incorporated, priority 2024, published 2025).

B1: PS423: ClpS amino acid recognition protein, SEQ ID NO: 46 (protein)
chain: MAPTPAGAAVLDKQQQRRHKHASRYRVLLHNDPVNTMEYVVESLRQVVPQLSEQDAIAVMVEAHNTGVGLVIVCDIEPAEFYCEQLKTKGLTSSIEPED
B2: PS422: ClpS amino acid recognition protein, SEQ ID NO: 45 (protein)
chain: MTQIKPQTIPDTDVISQTQSDWQMPDLYAVIMHNDDYTTMDFVVFLLNAVFDKPIEQAYQLMMQIHQTGRAVVAILPYEIAEMKVDEATSLAEQEQFPLFISIEQA
B3: PS416: ClpS amino acid recognition protein, SEQ ID NO: 39 (protein)
chain: MTSQTDTLVKPNIQPPSLFKVIYINDSVTTMEFVVESLMSVFNHSADEATRLTQLVHEEGAAVVAILPYELAEQKGMEVTLLARNNGFPLAIRLEPAV
B4: PS420: ClpS amino acid recognition protein, SEQ ID NO: 43 (protein)
chain: MSDYSNQISQAGSGVAEDASITLPPERKVVFYNDDFTTMEFVVDVLVSIFNKSHSEAEELMQTVHQEGSSVVGVYTYDIAVSRTNLTIQAARKNGFPLRVEVE
B5: PS419: ClpS amino acid recognition protein, SEQ ID NO: 42 (protein)
chain: MEKEQSLCKEKTHVELSEPKHYKVVFHNDDFTTMDFVVKVLQLVFFKSQLQAEDLTMKIHLEGSATAGIYSYDIAQSKAQKTTQMAREEGFPLRLTVEPEDN
B6: PS371: ClpS amino acid recognition protein, SEQ ID NO: 4 (protein)
chain: MATETIERPRTRDPGSGLGGHWLVIVLNDDHNTFDHVAKTLARVIPGVTVDDGYRFADQIHQRGQAIVWRGPKEPAEHYWEQLQDAGLSMAPLERH
B7: PS424: ClpS amino acid recognition protein, SEQ ID NO: 47 (protein)
chain: MSVETIEKRSTTRKLAPQYRVLLHNDDYNSMEYVVQVLMTSVPSITQPQAVNIMMEAHNSGLALVITCAQEHAEFYCETLKGHGLSSTIEPD
B8: PS421: ClpS amino acid recognition protein, SEQ ID NO: 44 (protein)
chain: MTTPNKRPEFEPEIGLEDEVGEPRKYKVLLHNDDYTTMDFVVQVLIEVFRKSETEATHIMLTIHEKGVGTCGIYPAEVAETKINEVHTRARREGFPLRASMEEV
B9: PS417: ClpS amino acid recognition protein, SEQ ID NO: 40 (protein)
chain: MSNLDTDVLIDEKVKVVTTEPEKYRVILLNDDVTPMDFVINILVSIFKHSTDTAKDLTLKIHKEGSAIVGVYTYEIAEQKGIEATNESRQHGFPLQVKIERENTL
B10: PS418: ClpS amino acid recognition protein, SEQ ID NO: 41 (protein)
chain: MSDHNIDHDTSVAVHLDVVVREPPMYRVVLLNDDFTPMEFVVELLMHFFRKTAEQATQIMLNIHHEGVGVCGTYPREIAETKVAQVHQHARTNGHPLKCRMEPS

Tested on: amino acid at a terminal position of a polypeptide
Details: Table 1, ClpS proteins; amino acid at terminal position; inferred from literature and/or demonstrated by the inventors; cited from earlier work

Molecule	Binding Pref.
B1	F, Y, W
B2	F, Y, W, L
B3	F, Y, W, L
B4	F, Y, W, L
B5	F, Y, W, L
B6	F, Y, W, L
B7	F, Y, W
B8	F, Y, W, L
B9	F, Y, W
B10	F, Y, W, L
